Values of other authors, collected in US10190113B2, “Methods and compositions for segregating target nucleic acid from mixed nucleic acid samples” (FLIR DETECTION, INC., priority 2011, dated 2019).
Values joined by “and” are separate entries in the source; they are usually repeats but may differ in a detail not shown here. Equal entries are not always repeated.

Test system: nucleic acid recognition or cleavage site
Conditions: mutant restriction enzyme relative to wild type; cited from earlier work

Molecule | % of WT cleavage activity
EcoRV Y72N: EcoRV restriction enzyme with mutation Y72N (protein, UniProt P04390 2-245, looked up, variant Y72N) Type II restriction enzyme …: SLRSDLINALYDENQKYDVCGIISAEGKIYPLGSDTKVLSTIFELFSRPIINKIAEKHGYIVEEPKQQNHNPDFTLYKPSEPNKKIAIDIKTTYTNKENEKIKFTLGGYTSFIRNNTKNIVYPFDQYIAHWIIGYVYTRVATRKSSLKTYNINELNEIPKPYKGVKVFLQDKWVIAGDLAGSGNTTNIGSIHAHYKDFVEGKGIFDSEDEFLDYWRNYERTSQLRNDKYNNISEYRNWIYRGRK | <0.1%
EcoRV D90N: EcoRV restriction enzyme with mutation D90N (two citations) (protein, UniProt P04390 2-245, looked up, variant D90N) Type II restriction enzyme …: SLRSDLINALYDENQKYDVCGIISAEGKIYPLGSDTKVLSTIFELFSRPIINKIAEKHGYIVEEPKQQNHYPDFTLYKPSEPNKKIAINIKTTYTNKENEKIKFTLGGYTSFIRNNTKNIVYPFDQYIAHWIIGYVYTRVATRKSSLKTYNINELNEIPKPYKGVKVFLQDKWVIAGDLAGSGNTTNIGSIHAHYKDFVEGKGIFDSEDEFLDYWRNYERTSQLRNDKYNNISEYRNWIYRGRK | 0%
EcoRV D74E: EcoRV restriction enzyme with mutation D74E (protein, UniProt P04390 2-245, looked up, variant D74E) Type II restriction enzyme …: SLRSDLINALYDENQKYDVCGIISAEGKIYPLGSDTKVLSTIFELFSRPIINKIAEKHGYIVEEPKQQNHYPEFTLYKPSEPNKKIAIDIKTTYTNKENEKIKFTLGGYTSFIRNNTKNIVYPFDQYIAHWIIGYVYTRVATRKSSLKTYNINELNEIPKPYKGVKVFLQDKWVIAGDLAGSGNTTNIGSIHAHYKDFVEGKGIFDSEDEFLDYWRNYERTSQLRNDKYNNISEYRNWIYRGRK | 0%
EcoRV D74A: EcoRV restriction enzyme with mutation D74A (protein, UniProt P04390 2-245, looked up, variant D74A) Type II restriction enzyme …: SLRSDLINALYDENQKYDVCGIISAEGKIYPLGSDTKVLSTIFELFSRPIINKIAEKHGYIVEEPKQQNHYPAFTLYKPSEPNKKIAIDIKTTYTNKENEKIKFTLGGYTSFIRNNTKNIVYPFDQYIAHWIIGYVYTRVATRKSSLKTYNINELNEIPKPYKGVKVFLQDKWVIAGDLAGSGNTTNIGSIHAHYKDFVEGKGIFDSEDEFLDYWRNYERTSQLRNDKYNNISEYRNWIYRGRK | 0%
EcoRV P73A: EcoRV restriction enzyme with mutation P73A (two citations) (protein, UniProt P04390 2-245, looked up, variant P73A) Type II restriction enzyme …: SLRSDLINALYDENQKYDVCGIISAEGKIYPLGSDTKVLSTIFELFSRPIINKIAEKHGYIVEEPKQQNHYADFTLYKPSEPNKKIAIDIKTTYTNKENEKIKFTLGGYTSFIRNNTKNIVYPFDQYIAHWIIGYVYTRVATRKSSLKTYNINELNEIPKPYKGVKVFLQDKWVIAGDLAGSGNTTNIGSIHAHYKDFVEGKGIFDSEDEFLDYWRNYERTSQLRNDKYNNISEYRNWIYRGRK | <0.1% and 1%
EcoRV K92R: EcoRV restriction enzyme with mutation K92R (protein, UniProt P04390 2-245, looked up, variant K92R) Type II restriction enzyme …: SLRSDLINALYDENQKYDVCGIISAEGKIYPLGSDTKVLSTIFELFSRPIINKIAEKHGYIVEEPKQQNHYPDFTLYKPSEPNKKIAIDIRTTYTNKENEKIKFTLGGYTSFIRNNTKNIVYPFDQYIAHWIIGYVYTRVATRKSSLKTYNINELNEIPKPYKGVKVFLQDKWVIAGDLAGSGNTTNIGSIHAHYKDFVEGKGIFDSEDEFLDYWRNYERTSQLRNDKYNNISEYRNWIYRGRK | 0%
EcoRV I91L: EcoRV restriction enzyme with mutation I91L (protein, UniProt P04390 2-245, looked up, variant I91L) Type II restriction enzyme …: SLRSDLINALYDENQKYDVCGIISAEGKIYPLGSDTKVLSTIFELFSRPIINKIAEKHGYIVEEPKQQNHYPDFTLYKPSEPNKKIAIDLKTTYTNKENEKIKFTLGGYTSFIRNNTKNIVYPFDQYIAHWIIGYVYTRVATRKSSLKTYNINELNEIPKPYKGVKVFLQDKWVIAGDLAGSGNTTNIGSIHAHYKDFVEGKGIFDSEDEFLDYWRNYERTSQLRNDKYNNISEYRNWIYRGRK | <0.1%
EcoRV E45A: EcoRV restriction enzyme with mutation E45A (protein, UniProt P04390 2-245, looked up, variant E45A) Type II restriction enzyme …: SLRSDLINALYDENQKYDVCGIISAEGKIYPLGSDTKVLSTIFALFSRPIINKIAEKHGYIVEEPKQQNHYPDFTLYKPSEPNKKIAIDIKTTYTNKENEKIKFTLGGYTSFIRNNTKNIVYPFDQYIAHWIIGYVYTRVATRKSSLKTYNINELNEIPKPYKGVKVFLQDKWVIAGDLAGSGNTTNIGSIHAHYKDFVEGKGIFDSEDEFLDYWRNYERTSQLRNDKYNNISEYRNWIYRGRK | <0.1%
EcoRV P73T: EcoRV restriction enzyme with mutation P73T (protein, UniProt P04390 2-245, looked up, variant P73T) Type II restriction enzyme …: SLRSDLINALYDENQKYDVCGIISAEGKIYPLGSDTKVLSTIFELFSRPIINKIAEKHGYIVEEPKQQNHYTDFTLYKPSEPNKKIAIDIKTTYTNKENEKIKFTLGGYTSFIRNNTKNIVYPFDQYIAHWIIGYVYTRVATRKSSLKTYNINELNEIPKPYKGVKVFLQDKWVIAGDLAGSGNTTNIGSIHAHYKDFVEGKGIFDSEDEFLDYWRNYERTSQLRNDKYNNISEYRNWIYRGRK | 0%
EcoRV E45D: EcoRV restriction enzyme with mutation E45D (protein, UniProt P04390 2-245, looked up, variant E45D) Type II restriction enzyme …: SLRSDLINALYDENQKYDVCGIISAEGKIYPLGSDTKVLSTIFDLFSRPIINKIAEKHGYIVEEPKQQNHYPDFTLYKPSEPNKKIAIDIKTTYTNKENEKIKFTLGGYTSFIRNNTKNIVYPFDQYIAHWIIGYVYTRVATRKSSLKTYNINELNEIPKPYKGVKVFLQDKWVIAGDLAGSGNTTNIGSIHAHYKDFVEGKGIFDSEDEFLDYWRNYERTSQLRNDKYNNISEYRNWIYRGRK | <0.3%
EcoRV E45Q: EcoRV restriction enzyme with mutation E45Q (protein, UniProt P04390 2-245, looked up, variant E45Q) Type II restriction enzyme …: SLRSDLINALYDENQKYDVCGIISAEGKIYPLGSDTKVLSTIFQLFSRPIINKIAEKHGYIVEEPKQQNHYPDFTLYKPSEPNKKIAIDIKTTYTNKENEKIKFTLGGYTSFIRNNTKNIVYPFDQYIAHWIIGYVYTRVATRKSSLKTYNINELNEIPKPYKGVKVFLQDKWVIAGDLAGSGNTTNIGSIHAHYKDFVEGKGIFDSEDEFLDYWRNYERTSQLRNDKYNNISEYRNWIYRGRK | <0.3%
BamHI T153I: BamHI restriction enzyme with mutation T153I (listed twice) (protein, UniProt P23940 1-213, looked up, variant T153I) Type II restriction enzyme …: MEVEKEFITDEAKELLSKDKLIQQAYNEVKTSICSPIWPATSKTFTINNTEKNCNGVVPIKELCYTLLEDTYNWYREKPLDILKLEKKKGGPIDVYKEFIENSELKRVGMEFETGNISSAHRSMNKLLLGLKHGEIDLAIILMPIKQLAYYLIDRVTNFEELEPYFELTEGQPFIFIGFNAEAYNSNVPLIPKGSDGMSKRSIKKWKDKVENK | 0.1% and 1%
